Assay [1] has as its target T1, human IL-12 (human, UniProt P29460 23-328; P29459 23-219).
T1 construct: Recombinant (Peprotech); FLAG-tagged IL-12 in the flow cytometry assays, biotinylated in the IL-12Rβ2 assay; also called hIL-12
T1 sequence 1: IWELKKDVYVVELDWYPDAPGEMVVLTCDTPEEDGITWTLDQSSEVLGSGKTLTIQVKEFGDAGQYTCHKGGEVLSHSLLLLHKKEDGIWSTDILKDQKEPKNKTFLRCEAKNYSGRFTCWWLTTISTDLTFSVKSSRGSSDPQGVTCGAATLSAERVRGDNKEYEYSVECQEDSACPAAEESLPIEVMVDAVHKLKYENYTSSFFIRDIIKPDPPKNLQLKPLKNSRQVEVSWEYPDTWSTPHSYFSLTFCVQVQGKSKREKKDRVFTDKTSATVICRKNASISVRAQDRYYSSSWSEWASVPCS
T1 sequence 2: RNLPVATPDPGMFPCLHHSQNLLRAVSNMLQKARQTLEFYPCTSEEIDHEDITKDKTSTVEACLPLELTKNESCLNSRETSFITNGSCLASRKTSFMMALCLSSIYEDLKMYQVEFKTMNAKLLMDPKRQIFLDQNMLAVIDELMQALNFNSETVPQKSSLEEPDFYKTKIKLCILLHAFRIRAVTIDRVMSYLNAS
The experiment in a line: SPR, single 81 nM analyte, scFv via FLAG. (SPR reads the build-up and loss of mass on a sensor chip optically.)

Assay [2] has as its target T1, human IL-12. The experiment in a line: ELISA, coated IL-12. The procedure, abridged:
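Maxisorp plates were coated overnight at 4° C with cytokine at 1 μg/mL in carbonate buffer pH 9.6, then blocked for 1 hour at 25° C with 1% BSA in PBS. Antibody titrations were allowed to bind for 1 hour at 25° C and detected with goat anti-human IgG or anti-murine immunoglobulin HRP (1:2000, 1 hour), followed by TMB development stopped with 1M HCl. Binding is reported as absorbance. Readings were taken at 450 nm against a 620 nm reference.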
(An ELISA detects its analyte on a solid surface through an enzyme-linked reagent.)

The target in assay [3] is T1, human IL-12. The experiment in a line: ELISA, coated IL-12. How it is done: (§1) IL-12 (Peprotech), IL-23 (Ebioscience™), IL-12p40 (Ebioscience™) or IL-12p80 (Peprotech), was diluted to 1 μg/mL in carbonate coating buffer ([…] pH 9.6) and coated onto a 96 well plate (Nunc™, Maxisorp™) overnight at 4° C. The plate was then washed three times with wash buffer (0.01M PBS pH 7.2, 0.05% Tween-20) and then three times with 0.01M PBS pH 7.2. The wells were then blocked by adding 200 μl of blocking buffer (1% w/v BSA in 0.01 M PBS pH 7.2) to each well and incubating the plate at 25° C. for 1 hour. The antibody was diluted in antibody diluent (1% w/v BSA, 0.05% Tween-20 in 0.01M PBS pH 7.2) sufficient to generate a titration curve. The wells were incubated with the antibody for 1 hour at 25° C. The plate was then washed as previously described. Goat anti-human immunoglobulin G (H+L) antibody HRP conjugate (Zymed®) at 1:2000 in antibody diluent was used to detect bound primary antibody. Goat anti-murine immunoglobulin antibody HRP conjugate (Dako) at 1:2000 in antibody diluent was used to detect bound murine antibody. After incubation at 25° C. for 1 hour the plate was washed again as previously described. TMB substrate solution (Zymed®) was added to each well and the colour allowed to develop; the reaction was terminated by adding 1M HCl to the wells. The absorbance of each well was determined at 450 nm (ref. 620 nm).
The source holds these as a separate data set.

A further assay has as its target T2, human IL-23 (human, UniProt P29460 23-328; Q9NPF7 20-189).
T2 construct: Recombinant (Ebioscience); HIS-tagged in flow cytometry, biotinylated in some assays; also called hIL-23; rhIL-23
T2 sequence 1: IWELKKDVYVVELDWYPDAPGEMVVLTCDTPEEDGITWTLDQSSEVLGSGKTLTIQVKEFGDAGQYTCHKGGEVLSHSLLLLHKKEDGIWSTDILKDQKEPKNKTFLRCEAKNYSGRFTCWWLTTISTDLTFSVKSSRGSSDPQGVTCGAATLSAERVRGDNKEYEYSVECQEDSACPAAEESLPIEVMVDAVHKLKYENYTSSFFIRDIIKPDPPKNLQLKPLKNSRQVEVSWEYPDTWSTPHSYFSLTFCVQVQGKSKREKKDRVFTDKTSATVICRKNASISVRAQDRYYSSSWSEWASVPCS
T2 sequence 2: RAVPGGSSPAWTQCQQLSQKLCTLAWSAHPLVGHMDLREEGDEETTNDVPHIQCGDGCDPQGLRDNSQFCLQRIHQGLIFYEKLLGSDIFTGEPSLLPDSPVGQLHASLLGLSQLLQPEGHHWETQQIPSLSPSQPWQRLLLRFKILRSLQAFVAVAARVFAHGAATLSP
The experiment in a line: ELISA, coated IL-23. Here is the method: as §1

We go through 13 molecules from patent US20110262445A1 (CEPHALON AUSTRALIA, published 2011).

Read-outs that look alike come from different tables or passages of the source.

B1: scFv combo. # 3 (scFv)
scFv: QVQLVQSGAEVKKPGASVKVSCKASGYAFTDYYLHWVRQAPGQGLEWMGWIDPENGDTEYAPKFQGRVTMTTDTSTSTAYMELRSLRSDDTAVYYCNANKELRYFDVWGQGTMVTVSSGGGGSGGGGSGGGGSEIVMTQSPATLSVSPGERATLSCRAPQSISINLHWYQQKPGQAPRLLIYFASQSISGIPARFSGSGSGTEFTLTISSLQSEDFAVYYCQQSNSFPLTFGGGTKVEIKR
notes: scFv-80 with VH T28A; VL S26P; not shown: proprietary C-terminal FLAG tag
Regarding B1, in the assay with human IL-12 [1], binding was put at a Kd of 0.029 nM, the koff came to 4.5e-05 s⁻¹ and the kon came to 1.6e+06 M⁻¹ s⁻¹.

B2: scFv combo. # 16 (scFv)
scFv: QVQLVQSGAEVKKPGASVKVSCKASGYTLTDYYLHWVRQAPGQGLEWMGWIDPENGDTEYAPKFQGRVTMTTDTSTSTAYMELRSLRSDDTAVYYCNANKELRYFDVWGQGTMVTVSSGGGGSGGGGSGGGGSEIVMTQSPATLSVSPGERATLSCRASQSISINLHWYQQKPGQAPRLLIYFARQSISGIPARFSGSGSGTEFTLTISSLQSEDFAVYYCQQSNSFPLTFGGGTKVEIKR
notes: scFv-80 with VH F29L; VL S52R; not shown: proprietary C-terminal FLAG tag
In the case of B2, in the assay with human IL-12 [1], the Kd amounted to 0.05 nM, the koff is 7.5e-05 s⁻¹ and the on-rate constant (kon) was found to be 1.5e+06 M⁻¹ s⁻¹.

B3: scFv combo. # 4 (scFv)
scFv: QVQLVQSGAEVKKPGASVKVSCKASGYTLTDYYLHWVRQAPGQGLEWMGWIDPENGDTEYAPKFQGRVTMTTDTSTSTAYMELRSLRSDDTAVYYCNANKELRYFDVWGQGTMVTVSSGGGGSGGGGSGGGGSEIVMTQSPATLSVSPGERATLSCRAPQSISINLHWYQQKPGQAPRLLIYFASQSISGIPARFSGSGSGTEFTLTISSLQSEDFAVYYCQQSNSFPLTFGGGTKVEIKR
notes: scFv-80 with VH F29L; VL S26P; not shown: proprietary C-terminal FLAG tag
With B3, in the assay with human IL-12 [1], the affinity, expressed as Kd, was 0.027 nM; the koff is 4.8e-05 s⁻¹; the kon came to 1.8e+06 M⁻¹ s⁻¹.

B4: scFv combo. # 5 (scFv)
scFv: QVQLVQSGAEVKKPGASVKVSCKASGYAFTDYYLHWVRQAPGQGLEWMGWIDPENGDTEYAPKFQGRVTMTTDTSTSTAYMELRSLRSDDTAVYYCNANKELRYFDVWGQGTMVTVSSGGGGSGGGGSGGGGSEIVMTQSPATLSVSPGERATLSCRASQSISINLHWYQQKPGQAPRLLIYFASQSISGIPARFFGSGSGTEFTLTISSLQSEDFAVYYCQQSNSFPLTFGGGTKVEIKR
notes: scFv-80 with VH T28A; VL S63F; not shown: proprietary C-terminal FLAG tag
As for B4, in the assay with human IL-12 [1], binding was put at a Kd of 0.038 nM, the koff was found to be 6.5e-05 s⁻¹ and the kon worked out at 1.7e+06 M⁻¹ s⁻¹.

B5: scFv combo. # 15 (scFv)
scFv: QVQLVQSGAEVKKPGASVKVSCKASGYTLTDYYLHWVRQAPGQGLEWMGWIDPENGDTEYAPKFQGRVTMTTDTSTSTAYMELRSLRSDDTAVYYCNANKELRYFDVWGQGTMVTVSSGGGGSGGGGSGGGGSEIVMTQSPATLSVSPGERATLSCRASQSISINLHWYQQKPGQAPRLLIYFASQSISGIPARFFGSGSGTEFTLTISSLQSEDFAVYYCQQSNSFPLTFGGGTKVEIKR
notes: scFv-80 with VH F29L; VL S63F; not shown: proprietary C-terminal FLAG tag
In the assay with human IL-12 [1], B5 had a dissociation constant Kd of 0.039 nM, an off-rate constant (koff) of 6.4e-05 s⁻¹ and a kon of 1.7e+06 M⁻¹ s⁻¹.

B6: Antibody 6 (antibody, human IgG1, kappa, V domains shown)
VH: EVQLQQSGADLVRSGASIKLSCTASGFNIKDYYMHWVKQRPEQGLEWIGWIDPENGDTEYAPKFQGKATMTADTSSNTAYLQLSSLTSEDTAVYYCNARKELRYFDVWGAGTTVTVSS
VL: DIVLTQSPATLSVTPGDSVSLSCRASQSISINLHWYQQKSHESPRLLIKFASQSISGIPSRFSGYGSGTDFTLSINSVETEDFGRYFCQQSNSWPLTFGAGTKLELKR
B6: the binding result in the assay with human IL-12 [2] was “no binding (tested: not given)”.

B7: Antibody 199 (antibody, human IgG1, kappa, V domains shown)
VH: QVQLVQSGAEVKKPGASVKVSCKASGYTFTDYYLHWVRQAPGQGLEWMGWIDPENGDTEYAPKFQGRVTMTTDTSTSTAYMELRSLRSDDTAVYYCAANKELRYFDVWGQGTMVTVSS
VL: EIVMTQSPATLSVSPGERATLSCRASQSISINLHWYQQKPGQAPRLLIYFASQSISGIPARFSGSGSGTEFTLTISSLQSEDFAVYYCQQSNSFPLTFGGGTKVEIKR
Consider B7, for which the binding result with human IL-12 [3] and with human IL-23 was “binds” throughout.

B8: Antibody 203 (antibody, human IgG1, kappa, V domains shown)
VH: QVQLVQSGAEVKKPGASVKVSCKASGYTFTDYYLHWVRQAPGQGLEWMGWIDPENGDTEHAPKFQGRVTMTTDTSTSTAYMELRSLRSDDTAVYYCAANKELRYFDVWGQGTMVTVSS
VL: EIVMTQSPATLSVSPGERATLSCRASQSISINLHWYQQKPGQAPRLLIYFASQSISGIPARFSGSGSGTEFTLTISSLQSEDFAVYYCQQSNSFPLTFGGGTKVEIKR
Take B8: the binding result with human IL-12 [3] and with human IL-23 was “binds” in each case.

B9: Antibody 206 (antibody, human IgG1, kappa, V domains shown)
VH: QVQLVQSGAEVKKPGASVKVSCKASGYAFTDYYLHWVRQAPGQGLEWMGWIDPENGDTEYAPKFQGRVTMTTDTSTSTAYMELRSLRSDDTAVYYCAANKELRYFDVWGQGTMVTVSS
VL: EIVMTQSPATLSVSPGERATLSCRASQSISINLHWYQQKPGQAPRLLIYFASQSISGIPARFSGSGSGTEFTLTISSLQSEDFAVYYCQQSNSFPLTFGGGTKVEIKR
As for B9, the binding result with human IL-12 [3] is “binds”.

B10: Antibody 204 (antibody, human IgG1, kappa, V domains shown)
VH: QVQLVQSGAEVEKPGASVKVSCKASGYTFTDYYLHWVRQAPGQGLEWMGWIDPENGDTEYAPKFQGGVTMTTDTSTSTAYMELRSLRSDDTAVYYCAANKELRYFDVWGQGTMVTVSS
VL: EIVMTQSPATLSVSPGERATLSCRASQSISINLHWYQQKPGQAPRLLIYFASQSISGIPARFSGSGSGTEFTLTISSLQSEDFAVYYCQQSNSFPLTFGGGTKVEIKR
notes: not the murine PMA204
Take B10: the binding result in the assay with human IL-12 [3] and in the assay with human IL-23 was “binds” each time.

B11: Antibody 200 (antibody, human IgG1, kappa, V domains shown)
VH: QVQLVQSGAEVKKPGASVKVSCKASGYTLTDYYLHWVRQAPGQGLEWMGWIDPENGDTEYAPKFQGRVTMTTDTSTSTAYMELRSLRSDDTAVYYCAANKELRYFDVWGQGTMVTVSS
VL: EIVMTQSPATLSVSPGERATLSCRASQSISINLHWYQQKPGQAPRLLIYFASQSISGIPARFSGSGSGTEFTLTISSLQSEDFAVYYCQQSNSFPLTFGGGTKVEIKR
In the case of B11, the binding result with human IL-12 [3] and with human IL-23 was “binds” throughout.

B12: Antibody 201 (antibody, human IgG1, kappa, V domains shown)
VH: QVQLVQSGAEVKKPGASVKVSCKASGYTFTDYYLHWVRQAPGQGLEWMGWIDPENGDTESAPKFQGRVTMTTDTSTSTAYMELRSLRSDDTAVYYCAANKELRYFDVWGQGTMVTVSS
VL: EIVMTQSPATLSVSPGERATLSCRASQSISINLHWYQQKPGQAPRLLIYFASQSISGIPARFSGSGSGTEFTLTISSLQSEDFAVYYCQQSNSFPLTFGGGTKVEIKR
For the molecule B12, the binding result with human IL-12 [3] and in the assay with human IL-23 was “binds” in each case.

B13: Antibody 202 (antibody, human IgG1, kappa, V domains shown)
VH: QVQLVQSGAEVKKPGASVKVSCKASGYTLTDYYLHWVRQAPGQGLEWMGWIDPENGDTESAPKFQGRVTMTTDTSTSTAYMELRSLRSDDTAVYYCAANKELRYFDVWGQGTMVTVSS
VL: EIVMTQSPATLSVSPGERATLSCRASQSISINLHWYQQKPGQAPRLLIYFASQSISGIPARFSGSGSGTEFTLTISSLQSEDFAVYYCQQSNSFPLTFGGGTKVEIKR
notes: not the murine PMA202
In the case of B13, the binding result in the assay with human IL-12 [3] and with human IL-23 was “binds” each time.

One may read the Kd as the constant that tells how readily two partners part at equilibrium. The low end stands for tighter binding, the high end for weaker binding. What is called koff is the rate constant with which the complex falls apart. Low readings indicate a long-lived complex, high ones a short-lived complex. As a reminder, the kon is the rate constant with which the complex forms.
